Experimental findings from US20230028050A1 (JUNO THERAPEUTICS, published 2023) are described below.

T1: soluble monomeric BCMA-human Fc fusion protein (UniProt Q02223 1-54, limits assumed)
T1 construct: also called Monomeric BCMA-Fc; not shown: human Fc
T1 sequence (looked up): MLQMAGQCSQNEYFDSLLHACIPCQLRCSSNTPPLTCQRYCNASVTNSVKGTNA

T2: soluble dimeric BCMA-human Fc fusion protein (UniProt Q02223 1-54, limits assumed)
T2 construct: also called Dimeric BCMA-Fc; not shown: human Fc
T2 sequence (looked up): T1 sequence (looked up)

T3: recombinant BCMA-Fc (soluble human BCMA fused at its C-terminus to an Fc region of IgG) fusion polypeptide (human, UniProt Q02223 1-54)
T3 construct: Used as a staining control; also called recombinant BCMA-Fc fusion polypeptide; not shown: Fc region of IgG
T3 sequence (looked up): T1 sequence (looked up)

B1: soluble monomeric scFv-Fc fusion protein (scFv from anti-BCMA CAR 2) (Fc fusion)
chain: QSALTQPASVSASPGQSIAISCTGTSSDVGWYQQHPGKAPKLMIYEDSKRPSGVSNRFSGSKSGNTASLTISGLQAEDEADYYCSSNTRSSTLVFGGGTKLTVLGSRGGGGSGGGGSGGGGSLEMAEVQLVQSGAEMKKPGASLKLSCKASGYTFIDYYVYWMRQAPGQGLESMGWINPNSGGTNYAQKFQGRVTMTRDTSISTAYMELSRLRSDDTAMYYCARSQRDGYMDYWGQGTLVTVSS
notes: not shown: Fc
B2: soluble dimeric scFv-Fc fusion protein (scFv from anti-BCMA CAR 2) (Fc fusion)
chain: B1 chain
notes: not shown: Fc
B3: anti-idiotype antibody clone 10 (antibody, mouse IgG1, kappa, V domains shown)
VH: EVKLLESGGGLVQPGGSLKLSCAASGFDFSRYWMSWVRQAPGKGLEWIGEINPDSSTINYTPSLKDKFIISRDNAKNTLYLQMSKVRSEDTALYYCARHGYYWYFDVWGAGTTVTVSS
VL: DIQMTQTTSSLSASLGDRVTISCRASQDISNYLNWYQQKPDGTVKLLIYYTSRLHSGVPSRFSGSGSGTDYSLTISNLEQEDIATYFCQQGNTLPYTFGGGTKLEIKR
notes: Mouse hybridoma antibody raised against the anti-BCMA CAR 1 scFv fused to mouse Fc and purified; Detected with a goat anti-mouse IgG secondary antibody; also called anti-ID clone 10
B4: anti-idiotype antibody clone 16 (antibody, mouse IgG1, kappa, V domains shown)
VH: QVQLQQSGPELVKPGASVKISCKASGYTFTDFYINWVKQRPGQGLEWIGWIFPRSGSTYYNEKFKGKATLSVDKSSITAYMLLSSLTSEDSAVYFCARGDGYSGAMDYWGQGTSVTVSS
VL: B3 VL with R24S, D28G, S30R, R53N, Q80P, F87Y, G91Y, T93N, Y96R
notes: Mouse hybridoma antibody, purified; also called anti-ID clone 16
B5: anti-idiotype antibody clone 19 (antibody, mouse IgG2b, kappa, V domains shown)
VH: QVQLQQSGAELMKPGASVKLSCKATGYTFTAYWIEWVKQRPGHGLEWIGEILPGSGITKYSEKFKGKATFTADTSSNTAYMQLSSLTTEDSAIYYCARDYYSDNYWGQGTSVTVSS
VL: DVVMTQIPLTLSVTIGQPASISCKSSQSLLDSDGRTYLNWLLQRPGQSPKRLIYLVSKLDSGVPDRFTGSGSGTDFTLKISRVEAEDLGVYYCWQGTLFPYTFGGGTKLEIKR
notes: Mouse hybridoma antibody, purified; also called anti-ID clone 19
B6: anti-BCMA CAR 1 (chimeric antigen receptor with the scFv of anti-BCMA Target Antibody 1) (receptor)
chain: SYELTQPPSASGTPGQRVTMSCSGTSSNIGSHSVNWYQQLPGTAPKLLIYTNNQRPSGVPDRFSGSKSGTSASLAISGLQSEDEADYYCAAWDGSLNGLVFGGGTKLTVLGSRGGGGSGGGGSGGGGSLEMAEVQLVQSGAEVKKPGESLKISCKGSGYSFTSYWIGWVRQMPGKGLEWMGIIYPGDSDTRYSPSFQGHVTISADKSISTAYLQWSSLKASDTAMYYCARYSGSFDNWGQGTLVTVSS
notes: Whole receptor expressed on Jurkat T cells; not shown: human IgG-derived spacer, human CD28-derived transmembrane domain, human 4-1BB-derived intracellular signaling domain an
B7: anti-idiotype antibody clone 15 (antibody, mouse IgG1, kappa, V domains shown)
VH: QVQLQQSGAELVKPGASVKISCKASGYAFSSYWMNWVKQRPGKGLEWIGQIYPGNGETNNNGKFKGKATLTADISSSTAYMQLSSLTSEDSAVYFCARGGWYFDVWGTGTTVTVSS
VL: DIQMTQSPASLSASVGETVTITCRASENIYSYLAWYQQKQGKSPHLLVYNAYTLAEGVPSRFSGSGSDTQFSLKINSLQPEDFGNYYCQHHYGTPWTFGGGTKVEIKR
notes: Mouse hybridoma antibody, purified; also called anti-ID clone 15

Assay [1] has as its target T1, soluble monomeric BCMA-human Fc fusion …. The assay can be described thus: SPR, BIAcore T200, against monomeric scFv-Fc. The procedure: (§1) Off rates and equilibrium dissociation constants were determined against a soluble monomeric scFv-Fc fusion protein as well as against a soluble dimeric scFv-Fc fusion protein. For comparison, the kinetics and affinity of soluble monomeric and dimeric BCMA-human Fc fusion proteins were also assessed against the monomeric and dimeric scFv-Fc fusion proteins, respectively. Off rates and equilibrium dissociation constants were determined using a BIAcore T200 instrument.

For assay [2], the target named is T2, soluble dimeric BCMA-human Fc fusion …. The experiment in a line: SPR, BIAcore T200, against dimeric scFv-Fc. The procedure: as §1
On the technique in general: SPR reads the build-up and loss of mass on a sensor chip optically.

In assay [3] the target is T4, anti-BCMA CAR 2 (chimeric antigen receptor with the scFv of anti-BCMA Target Antibody 2).
T4 construct: Whole receptor expressed on Jurkat T cells, Nur77-tdTomato reporter cells or primary human T cells; not shown: human IgG2 and IgG4-derived spacer, human CD28-derived transmembrane domain, human 4-1BB-derived intracellular signaling
The experiment in a line: flow cytometry; Jurkat T cells expressing anti-BCMA CAR 2, 5 µg/mL purified anti-ID, goat anti-mouse IgG secondary antibody; parental Jurkat cells as negative. A general note: A flow cytometer gives signals particle by particle.

Assay [4] concerns the target B2. The assay can be described thus: SPR, BIAcore T200, against dimeric scFv-Fc. On the procedure:
as §1

For assay [5], the target named is B1. The experiment in a line: SPR, BIAcore T200, against monomeric scFv-Fc. The procedure: as §1
Assay [6] has as its target B6. The assay can be described thus: flow cytometry; Jurkat T cells expressing anti-BCMA CAR 1, anti-ID conjugated to Alexa Fluor 647.
The target in assay [7] is T3, recombinant BCMA-Fc (soluble human BCMA …). The experiment in a line: flow cytometry; Jurkat T cells expressing anti-BCMA CAR 1, staining with recombinant BCMA-Fc as control.
Assay [8] has as its target B6. The experiment in a line: flow cytometry; Jurkat T cells expressing anti-BCMA CAR 1, 2.5 µg/mL anti-ID conjugated to Alexa Fluor 647, 20 min at 4 °C.

Substitutions are numbered along the chain they refer to.

Broadly, the Kd is the equilibrium constant for the complex coming apart. Read a high Kd as lower affinity. The koff is the rate constant with which the complex falls apart. Regarding B1, in assay [1], the affinity, expressed as Kd, was 290 nM and the koff is 0.024 s⁻¹.

In assay [2], B2 returned a Kd of 7 nM and a koff of 0.00014 s⁻¹.

On to B3, for which the binding result in assay [3] is on record as “binds”.

For the molecule B4, in assay [4], the affinity, expressed as Kd, was 2.6 nM and the koff is 0.00014 s⁻¹. In assay [5], this molecule registered a dissociation constant Kd of 12 nM and a koff of 0.005 s⁻¹. The binding result in assay [6] was “no binding (tested: 2.5 µg/mL)”.

In assay [4], B5 showed an equilibrium dissociation constant (Kd) of 3.6 nM and a koff of 6.2e-05 s⁻¹. In assay [5], the Kd was determined as 55 nM and the koff turned out to be 0.0081 s⁻¹.

Regarding B6, in assay [7], the binding result is “binds”.

Consider B7, for which, in assay [4], the Kd amounted to 2.2 nM and the koff was found to be 4.4e-05 s⁻¹. In assay [5], this molecule gave a Kd of 18 nM and a koff of 0.0036 s⁻¹. Moreover, the binding result in assay [8] is on record as “binds”.
